Experiments:
Gal4/Myc = test: Gal4-TK-luciferase transactivation analysis, Gal4/Myc; assay type: cell-based; settings: IPTG-induced stable expression in Swiss 3T3 cells
Source text: (§1) Swiss 3T3 cells were transfected using calcium phosphate or lipofectamine with the reporter plasmid Gal4-TK-luciferase, which contains four Gal4 binding sites (Sadowski, I., et al. (1988). Nature 335, 563-564). adjacent to a minimal thymidine kinase (TK) promoter that controls expression of luciferase, in the presence or absence of activator plasmids encoding Gal4(1-147)/Myc(7-101) (Gupta et al. (1993) Proc. Natl. Acad. Sci. USA 90:3216-3220), Gal4(1-47)/Elk-1(83-428) (Marais, et al. (1993) Cell 73:381-393) or Gal4(1-147)/c-Jun(1-233) Hibi et al. (1993) Genes & Development 7:2135-2148). Transfections included pCMV5 without a cDNA insert (basal control), pCMV5MEKKCOOH and in some experiments pCMV5BxBRaf. Cells were incubated for 24-48 hr after transfection, lysed and assayed for luciferase activity. Values were normalized to equivalent μg protein for all experiments.

JNK/SAPK = JNK/SAPK activity in Swiss 3T3 clones with inducible MEKKCOOH; assay type: cell-based; settings: 17 hours IPTG induction
Description: JNK/SAPK: Activity was measured using GST (glutathione S-transferase)—c-Jun (1-79) BOUND to glutathione-Sepharose-4B (Hibi et al. supra). Cells expressing MEKKCOOH or control cells were lysed in 0.5% Nonidet P40 (NP40), 20 mM Tris-HCl, pH 7.6, 0.25 NaCl, 3 mM EDTA, 3 mM EGTA, 1 mM dithiothreitol, 1 mM phenylmethylsulfonyl fluoride, 2 mM sodium vanadate, 20 μg/ml aprotinin and 5 μg/ml leupeptin. Lysates were centrifuged at 15,000×g for 10 min to remove nuclei and supernatants (25 μg protein) mixed with 10 μl of GST-c-JUN(1-79)-Sepharose (3-5 μg of GST-c-Jun(1-79)). The mixture was rotated at 4° C. for 1 hr, washed 2× in lysis buffer and 1× in kinase buffer (20 mM Hepes, pH 7.5, 10 mM MgCl2, 20 mM β-glycerophosphate, 10 mM p-nitrophenyl phosphate, 1 mM dithiothreitol, 50 μM sodium vanadate). Beads were suspended in 40 μl of kinase buffer with 10 μCi Of [γ^32P] ATP and incubated at 30° C. for 20 min. Samples were boiled in Laemmli buffer and phosphorylated proteins resolved on SDS/10% polyacrylamide gels. To verify the selectivity of the JNK/SAPK assay cell lysates were fractionated by Mono Q ion exchange chromatography and each fraction assayed as described above. Fractions were also immunoblotted with a rabbit antisera recognizing JNK/SAPK. […]

Gal4/Jun = test: Gal4-TK-luciferase transactivation analysis, Gal4/Jun; assay type: cell-based; settings: IPTG-induced stable expression in Swiss 3T3 cells
Source text: as §1

GST-Ras^V12 = test: Binding of COS cell-expressed MEKK1 proteins to GST-Ras^V12 agarose; settings: COS cell lysates, immunoblot
Source text: COS cells were transiently transfected by the DEAE-dextran protocol as generally described in Example 3. Cos cells were transfected with: (1) p-MEKK1 containing a nucleic acid molecule encoding MEKK1 as described in Lange-Carter et al. (Science 260:315-319, […]); (2) p-MEKKNH2 containing a nucleic acid molecule that encodes a 858 base pair Pvull(682)-Ncol(1541) restriction digest fragment of the amino terminus of MEKK1 ligated into pCMV5; (3) p-MEKKCOOH containing a nucleic acid molecule that encodes a 1435 base pair Ncol(1541)-Sspl(2976) restriction digest fragment that includes the entire kinase domain of MEKK1 ligated into pCMV5; (4) pCMV5 without insert; or (5) p-C4Raf containing a nucleic acid molecule that encodes the amino terminus of Raf-1 ligated into pCMV5. COS cells expressing the various MEKK1 proteins were […] COS cells expressing the various MEKK1 proteins were lysed in EB (1% Triton X-100, 10 mM Tris HCl [pH 7.4], 5 mM EDTA, 50 mM NaCl, 50 mM NaF, 0.1% bovine serum albumin, 0.2 U/ml aprotinin, 1 mM phenylmethylsulfonyl fluoride and 2 mM Na3 VO4). The lysates were separated into two equal parts for separate binding reactions. Half of the lysate was incubated with GST agarose (1.5 μg) while half of the lysate was incubated with GST-Ras^V12 agarose (1.5 μg) (purchased from UBI) for 1 hr at 4° C. The GST-Ras^V12 was preincubated at 30° C. for 30 min with 1 mM nucleotide (GDP or GTPγS). The nucleotide binding reaction was stopped by adding MgCl2 to a final concentration of 20 mM. After the 1 hr binding reaction the agarose beads were pelleted at 2000 rpm for 2 min and washed 3 times with PBS+1.0% Triton X-100. The washed agarose beads were boiled in Laemmli SDS sample buffer and the proteins resolved by SDS polyacrylamide gel electrophoresis. Proteins were transferred onto nitrocellulose for immunoblotting with antibodies specific for an NH2 terminal fusion protein (described in Example 1) or a COOH terminal peptide (described in Example 1).

B1: MEKKCOOH: a truncated activated form of MEKK1 including the entire kinase domain (protein)
chain: MAMSASQDALPIVPQLQVENGEDIIIIQQDTPETLPGHTKAKQPYREDAEWLKGQQIGLGAFSSCYQAQDVGTGTLMAVKQVTYVRNTSSEQEEVVEALREEIRMMGHLNHPNIIRMLGATCEKSNYNLFIEWMAGGSVAHLLSKYGAFKESVVINYTEQLLRGLSYLHENQIIHRDVKGANLLIDSTGQRLRIADFGAAARLASKGTGAGEFQGQLLGTIAFMAPEVLRGQQYGRSCDVWSVGCAIIEMACAKPPWNAEKHSNHLALIFKIASATTAPSIPSHLSPGLRDVAVRCLELQPQDRPPSRELLKHPVFRTTW
In the case of B1, the “transactivation function of c-Myc” value (Gal4/Myc) is reported as “markedly activated”, the JNK/SAPK activity (JNK/SAPK) is reported as “stimulated JNK/SAPK activity” and the Gal4/Jun activity (Gal4/Jun) is reported as “little effect on Gal4/Jun activity”. The “binding to GST-Ras^V12 (in words)” value (GST-Ras^V12) was “bound to GST-Ras^V12 in a GTP dependent manner”.
